The stoichiometry N is the number of molecules, sites or subunits per partner or assembly. As usually defined, the Kd is the concentration at which binding is half-saturated. Low readings indicate tighter binding, high ones weaker binding.

Experimental findings from paper PMC12431857, “A multichaperone condensate enhances protein folding in the endoplasmic reticulum” (Nature Cell Biology, 2025) are described below.

Changes are numbered by the printed parent chain. Numbers in names are those of the source.

B1: PDIA6 his-domain ab (residues 161-440) (domain or fragment, human, UniProt Q15084 161-440, looked up)
chain: DVIELTDDSFDKNVLDSEDVWMVEFYAPWCGHCKNLEPEWAAAASEVKEQTKGKVKLAAVDATVNQVLASRYGIRGFPTIKIFQKGESPVDYDGGRTRSDIVSRALDLFSDNAPPPELLEIINEDIAKRTCEEHQLCVVAVLPHILDTGAAGRNSYLEVLLKLADKYKKKMWGWLWTEAGAQSELETALGIGGFGYPAMAAINARKMKFALLKGSFSEQGINEFLRELSFGRGSTAPVGGGAFPTIVEREPWDGRDGELPVEDDIDLSDVELDDLGKDEL
notes: PDIA6, human, domains a and b with the C-terminal tail, residues 161-440; also called PDIA6 domain ab; his-TEV-domain ab; source: E. coli BL21-(DE3)-Lemo, purified (Ni-NTA, SEC); not shown: His6, N-terminal, kept
B2: 21-residue peptide corresponding to the a0-a linker of PDIA6 (peptide)
peptide: GGRSGGYSSGKQGRSDSSSKK
notes: linker between domains a0 and a of human PDIA6; Limits worked out from the printed positions R142, K150, R153, K159, K160 of the linker mutants; also called linker peptide
B3: Human PDIA6 lacking its ER signal sequence (residues 19-440) (natural protein, UniProt Q15084-1 19-440, looked up)
chain: GLYSSSDDVIELTPSNFNREVIQSDSLWLVEFYAPWCGHCQRLTPEWKKAATALKDVVKVGAVDADKHHSLGGQYGVQGFPTIKIFGSNKNRPEDYQGGRTGEAIVDAALSALRQLVKDRLGGRSGGYSSGKQGRSDSSSKKDVIELTDDSFDKNVLDSEDVWMVEFYAPWCGHCKNLEPEWAAAASEVKEQTKGKVKLAAVDATVNQVLASRYGIRGFPTIKIFQKGESPVDYDGGRTRSDIVSRALDLFSDNAPPPELLEIINEDIAKRTCEEHQLCVVAVLPHILDTGAAGRNSYLEVLLKLADKYKKKMWGWLWTEAGAQSELETALGIGGFGYPAMAAINARKMKFALLKGSFSEQGINEFLRELSFGRGSTAPVGGGAFPTIVEREPWDGRDGELPVEDDIDLSDVELDDLGKDEL
notes: Homodimer by SEC-MALS; Isotope-labelled (methyl labelling) for NMR; also called PDIA6 WT; PDIA6 full-length; not shown: His6, N-terminal, cleaved
B4: DyLight 488-PDIA6 (N-terminally tagged, residues 19-440) (natural protein, human, UniProt Q15084 19-440, looked up)
chain: B3 chain
modifications: DyLight 488 amine-reactive dye on the N-terminus
notes: Same construct as m1, fluorescently labelled for MST (0.75-1.5 moles dye per mole protein); not shown: His6, N-terminal, cleaved
B5: PDIA6 (R142Q, K150N, R153Q) linker mutant (natural protein, human, UniProt Q15084 19-440, looked up)
chain: B3 chain with R124Q, K132N, R135Q
notes: PDIA6, human, residues 19-440; source: E. coli BL21-(DE3)-Lemo, purified as the WT protein; not shown: His6, N-terminal, cleaved
B6: PDIA6 5x linker mutant (R142Q, K150N, R153Q, K159N and K160N) (natural protein, human, UniProt Q15084 19-440, looked up)
chain: B3 chain with R124Q, K132N, R135Q, K141N, K142N
notes: as for B5
B7: PDIA6 (K150N, R153Q, K159N) linker mutant (natural protein, human, UniProt Q15084 19-440, looked up)
chain: B3 chain with K132N, R135Q, K141N
notes: as for B5

Data set [1] concerns the target T1, Human BiP lacking its ER signal sequence (residues 19-654) (human, UniProt P11021 19-654).
T1 construct: Isotope-labelled (Ile, Met, Val methyl groups) where it was the observed protein in NMR; also called Hsp70 BiP; GRP78; not shown: His6, N-terminal, cleaved
The data set is described as follows: NMR titration; 2D [13C,1H]-HMQC or [15N,1H]-HSQC of 100 μM labelled protein without and with 2 eq. of the unlabelled partner; chemical shift perturbation mapping; 37 °C. To be noted: both partners purified.

In data set [2] the target is B3. The data set is described as follows: NMR titration; 2D [13C,1H]-HMQC of methyl-labelled full-length PDIA6 with 10 mM Ca2+, 10 eq. linker peptide added, no crowding agent, 37 °C; read-out: populations of conformations P and O of domain b; also after addition of 1 M KCl. To be noted: both partners purified.
Data set [3] concerns the molecule itself. The data set can be described thus: SEC-MALS; S200 10/300 GL column, 25 °C, SEC buffer (25 mM HEPES pH 7.5, 150 mM KCl, 10 mM MgCl2); proteins eluted at 20 μM. On the technique in general: In gel filtration, larger molecules generally elute earlier.
In data set [4] the target is T1, Human BiP lacking its ER signal …. The data set is described as follows: MST; 20 nM N-terminally tagged DyLight 488-PDIA6 with increasing BiP; SEC buffer with 5 mM ADP, 1 mM KH2PO4/K2HPO4, 0.05% Tween, 1 mM CaCl2; 30 min at 25 °C; Monolith NT.115; triplicates. The settings on record: both partners purified.

T1 sequence (P11021 19-654): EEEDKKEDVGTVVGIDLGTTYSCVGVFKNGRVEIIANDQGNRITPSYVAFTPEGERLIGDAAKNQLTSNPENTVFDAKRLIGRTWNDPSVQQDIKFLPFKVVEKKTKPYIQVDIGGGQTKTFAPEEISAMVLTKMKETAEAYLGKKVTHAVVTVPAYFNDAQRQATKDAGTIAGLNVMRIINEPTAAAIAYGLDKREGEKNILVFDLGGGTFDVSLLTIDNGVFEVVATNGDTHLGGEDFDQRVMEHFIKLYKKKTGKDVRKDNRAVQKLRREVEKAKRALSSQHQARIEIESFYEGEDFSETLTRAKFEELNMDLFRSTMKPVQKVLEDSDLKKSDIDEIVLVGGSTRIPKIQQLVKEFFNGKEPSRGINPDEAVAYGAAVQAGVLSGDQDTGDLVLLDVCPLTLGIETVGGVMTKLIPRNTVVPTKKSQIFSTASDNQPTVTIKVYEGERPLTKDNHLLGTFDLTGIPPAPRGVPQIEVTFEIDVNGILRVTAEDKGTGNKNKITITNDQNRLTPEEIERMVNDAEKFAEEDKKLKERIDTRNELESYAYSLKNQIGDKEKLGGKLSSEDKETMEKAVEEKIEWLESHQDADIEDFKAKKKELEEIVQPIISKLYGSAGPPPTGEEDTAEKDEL

As for B1, the binding result in data set [1] is “binds”. With B2, the binding result in data set [2] is recorded as “binds”.

For the molecule B3, in data set [1], the binding result is on record as “binds”. The “stoichiometry N” value in data set [3] amounted to 2. In the case of B4, the Kd in data set [4] is about 50 µM. Take B5: the “stoichiometry N” value in data set [3] came out at 2. Consider B6, for which, in data set [3], the “stoichiometry N” value was determined as 2. With B7, the “stoichiometry N” value in data set [3] stood at 2.
